Blank lines part the entries; values can stand above or below the molecule they belong to.
Experiments:
MDC-L = target: T1, MDC-L (Homo sapiens, UniProt Q9UKQ2); experiment: FRET peptide substrate screening, MDC-L; format: biochemical; parameters: key: from one star (*) to five stars (*****) to indicate weaker to more potent substrates respectively; from one star (*) to five stars (*****) to indicate weaker to more potent substrates respectively; from one star (*) to five stars (*****) to indicate weaker to more potent substrates respectively; from one star (*) to five stars (*****) to indicate weaker to more potent substrates respectively; (—) = no detectable activity; details: FRET peptide 20 uM, room temperature
T1 construct: FLAG (C); made in house; host or cells: Sf9 insect cells (baculovirus, pFastBac1)
T1 sequence (Q9UKQ2 204-399 limits assumed): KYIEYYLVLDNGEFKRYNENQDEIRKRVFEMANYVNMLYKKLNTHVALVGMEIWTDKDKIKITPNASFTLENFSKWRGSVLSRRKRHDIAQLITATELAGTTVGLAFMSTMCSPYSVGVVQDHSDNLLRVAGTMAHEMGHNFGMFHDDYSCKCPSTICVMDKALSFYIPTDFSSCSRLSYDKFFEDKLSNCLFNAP
Source text: (§1) Forty nine different peptides were synthesized for testing protease activity. The peptides comprised (i) a collection of substrates for other proteases, as well as (ii) a number of sequences corresponding to membrane proximal cleavage sites of various proteins postulated to be released by metalloproteases (including those published by (Roghani et al., 1999) for ADAM9/MDC9). In order to use the principle of fluorescence resonance energy transfer, or FRET, for the assay, the peptides were labelled at the C-terminus with Dabcyl and at the N-terminus with Edans. Thus cleavage of the peptides can be monitored by the increase in Edans fluorescence at 460 nm (excitation 360 nm) as a result of the decrease in proximity of the Dabcyl quencher. The assay was performed by diluting the ADAM8, ADAM15, MDC-L, or ADAM17 (50 to 100 ng of protein, one to two picomoles) in assay buffer, 10 mM HEPES, pH 7.5, containing 0.001% Brij35. The reaction was initiated by the addition of peptide substrate to a final concentration of 20 uM. The assays were typically run for 20 to 60 minutes at room temperature and the slope of the kinetic increase in fluorescence was determined to calculate the rate of the reaction. If necessary, it was possible to stop the reaction at a certain time by the addition of 1/10th volume of 1M NaOAc (sodium acetate), pH 3.5.
(§2) This peptide was cleaved by all enzymes, and thus was chosen to represent a standard by which to compare the relative activity of the various enzymes for their potential to cleave the various peptide substrates.

ADAM17 = target: T2, ADAM17 (Homo sapiens, UniProt P78536); experiment: FRET peptide substrate screening, ADAM17; format: biochemical; parameters: key: from one star (*) to five stars (*****) to indicate weaker to more potent substrates respectively; from one star (*) to five stars (*****) to indicate weaker to more potent substrates respectively; from one star (*) to five stars (*****) to indicate weaker to more potent substrates respectively; from one star (*) to five stars (*****) to indicate weaker to more potent substrates respectively; (—) = no detectable activity; details: FRET peptide 20 uM, room temperature
T2 construct: made in house
Source text: as §1, §2

ADAM8 [1] = target: T3, ADAM8 (Homo sapiens, UniProt P78325); experiment: FRET peptide substrate screening, ADAM8; format: biochemical; parameters: key: from one star (*) to five stars (*****) to indicate weaker to more potent substrates respectively; from one star (*) to five stars (*****) to indicate weaker to more potent substrates respectively; from one star (*) to five stars (*****) to indicate weaker to more potent substrates respectively; from one star (*) to five stars (*****) to indicate weaker to more potent substrates respectively; (—) = no detectable activity; details: FRET peptide 20 uM, room temperature
T3 construct: FLAG (C); made in house; host or cells: Sf9 insect cells (baculovirus, pFastBac1)
T3 sequence (P78325 200-400 limits assumed): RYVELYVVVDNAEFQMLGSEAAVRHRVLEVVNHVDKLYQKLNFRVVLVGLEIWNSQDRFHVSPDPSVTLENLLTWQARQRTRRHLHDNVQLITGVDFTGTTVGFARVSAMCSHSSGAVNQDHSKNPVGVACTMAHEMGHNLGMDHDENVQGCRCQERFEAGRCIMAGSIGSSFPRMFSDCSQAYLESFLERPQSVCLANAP
Source text: as §1, §2

ADAM15 = target: T4, ADAM15 (Homo sapiens, UniProt Q13444); experiment: FRET peptide substrate screening, ADAM15; format: biochemical; parameters: key: from one star (*) to five stars (*****) to indicate weaker to more potent substrates respectively; from one star (*) to five stars (*****) to indicate weaker to more potent substrates respectively; from one star (*) to five stars (*****) to indicate weaker to more potent substrates respectively; from one star (*) to five stars (*****) to indicate weaker to more potent substrates respectively; (—) = no detectable activity; details: FRET peptide 20 uM, room temperature
T4 construct: FLAG (C); made in house; host or cells: Sf9 insect cells (baculovirus, pFastBac1)
T4 sequence (Q13444 213-414 limits assumed): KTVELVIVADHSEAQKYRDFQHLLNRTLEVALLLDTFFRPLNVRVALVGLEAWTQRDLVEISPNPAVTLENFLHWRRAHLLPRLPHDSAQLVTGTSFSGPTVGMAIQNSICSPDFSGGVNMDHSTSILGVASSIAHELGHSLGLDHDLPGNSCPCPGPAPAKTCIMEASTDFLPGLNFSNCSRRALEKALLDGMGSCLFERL
Source text: as §1, §2

ADAM8 [2] = target: T3, ADAM8; experiment: Kinetic analysis of the affinity of ADAM8 for cleavage of 4 peptides; format: biochemical; details: for K0.5 (substrate concentration at which the enzyme activity was 50% of the Vmax): ADAM8, 30 minutes at room temperature, by inspection of the fitted curves; for Cleavage site of ADAM8 within the peptide: carot marks the cleavage site
Description: To confirm the screening assay, ADAM8 was further analyzed for its catalytic rate for 4 different peptides. The assay was performed by diluting the ADAM8 in assay buffer, 10 mM HEPES, pH 7.5, containing 0.001% Brij35. […] The assay was run for 30 minutes at room temperature. […] The curves were fitted to the data with the program Grafit (Erithacus Software). […] The Vmax for each substrate was calculated by non-linear fitting of the data. The substrate concentration at which the enzyme activity was 50% of the Vmax (designated “K0.5”) was determined by inspection of the fitted curves. Table 2 also provides the cleavage site of ADAM8 within each peptide, as indicated by a carot within the peptide sequence.

[3] = target: T5, CatE1 FRET peptide X-KPAKFFRL-Z (not fully specified)
T5 chain: KPAKFFRL

T2 sequence (P78536 215-824, species assumed): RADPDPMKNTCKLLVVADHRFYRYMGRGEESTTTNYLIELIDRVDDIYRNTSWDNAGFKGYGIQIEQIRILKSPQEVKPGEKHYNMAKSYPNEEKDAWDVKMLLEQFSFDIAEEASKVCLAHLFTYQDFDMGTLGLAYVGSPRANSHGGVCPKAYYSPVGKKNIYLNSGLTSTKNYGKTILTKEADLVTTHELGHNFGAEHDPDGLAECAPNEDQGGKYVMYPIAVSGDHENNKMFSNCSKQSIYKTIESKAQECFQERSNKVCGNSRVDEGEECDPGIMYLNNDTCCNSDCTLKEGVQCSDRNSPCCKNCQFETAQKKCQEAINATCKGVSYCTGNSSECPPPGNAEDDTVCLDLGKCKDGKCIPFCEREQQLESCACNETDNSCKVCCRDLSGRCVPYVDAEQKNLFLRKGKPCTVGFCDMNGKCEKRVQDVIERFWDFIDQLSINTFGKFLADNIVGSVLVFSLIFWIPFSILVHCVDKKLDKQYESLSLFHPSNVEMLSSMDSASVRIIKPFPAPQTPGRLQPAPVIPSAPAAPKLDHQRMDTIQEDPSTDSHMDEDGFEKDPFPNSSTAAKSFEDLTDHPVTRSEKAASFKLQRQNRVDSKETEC

Relative proteolytic activity MDC-L (MDC-L): ***
Relative proteolytic activity ADAM17 (ADAM17): (—)
Relative proteolytic activity ADAM8 (ADAM8 [1]): ***
Relative proteolytic activity ADAM15 (ADAM15): ***
Molecule: X-PPVAASSLRN-Z ({Edans‑E}-PPVAASSLRN-{dabcyl‑K}) [KL1, FRET peptide substrate; X = Edans-E; Z = dabcyl-K]

Relative proteolytic activity MDC-L (MDC-L): ***
Relative proteolytic activity ADAM17 (ADAM17): (—)
Relative proteolytic activity ADAM8 (ADAM8 [1]): ***
Relative proteolytic activity ADAM15 (ADAM15): ***
Molecule: X-PSAAQTARQHP-Z ({Edans‑E}-PSAAQTARQHP-{dabcyl‑K}) [TNFB2, FRET peptide substrate; X = Edans-E; Z = dabcyl-K]

More lines, now with the values behind:

Molecule: X-RVRRALPS-Z ({Edans‑E}-RVRRALPS-{dabcyl‑K}) [AD8P2, FRET peptide substrate; X = Edans-E; Z = dabcyl-K]
Relative proteolytic activity MDC-L (MDC-L): ***
Relative proteolytic activity ADAM17 (ADAM17): (—)
Relative proteolytic activity ADAM8 (ADAM8 [1]): ***
Relative proteolytic activity ADAM15 (ADAM15): ***

Molecule: X-KPAAFFRL-Z ({Edans‑E}-KPAAFFRL-{dabcyl‑K}) [CatE, FRET peptide substrate; X = Edans-E; Z = dabcyl-K]
Relative proteolytic activity MDC-L (MDC-L): *****
Relative proteolytic activity ADAM17 (ADAM17): (—)
Relative proteolytic activity ADAM8 (ADAM8 [1]): *****
K0.5 (substrate concentration at which the enzyme activity was 50% of the Vmax) (ADAM8 [2]): 5 µM
Cleavage site of ADAM8 within the peptide (ADAM8 [2]): XKPAAF^FRLZ
Relative proteolytic activity ADAM15 (ADAM15): *****

Molecule: Z-RGVVNASSRLAK-X ({dabcyl‑K}-RGVVNASSRLAK-{Edans‑E}) [KAS-1, FRET peptide substrate; X = Edans-E; Z = dabcyl-K]
Relative proteolytic activity MDC-L (MDC-L): ***
Relative proteolytic activity ADAM17 (ADAM17): (—)
Relative proteolytic activity ADAM8 (ADAM8 [1]): ***
Relative proteolytic activity ADAM15 (ADAM15): ***

Molecule: X-PLAQAVRSSS-Z ({Edans‑E}-PLAQAVRSSS-{dabcyl‑K}) [TNFα, FRET peptide substrate; X = Edans-E; Z = dabcyl-K]
Relative proteolytic activity MDC-L (MDC-L): ***
Relative proteolytic activity ADAM17 (ADAM17): ***
Relative proteolytic activity ADAM8 (ADAM8 [1]): ***
K0.5 (substrate concentration at which the enzyme activity was 50% of the Vmax) (ADAM8 [2]): 5 µM
Cleavage site of ADAM8 within the peptide (ADAM8 [2]): XPLAQAVRS^SSZ
Relative proteolytic activity ADAM15 (ADAM15): ***

Molecule: Z-LAQAVRSSSR-X ({dabcyl‑K}-LAQAVRSSSR-{Edans‑E}) [TNFα(−4 + 6), FRET peptide substrate; X = Edans-E; Z = dabcyl-K]
Relative proteolytic activity MDC-L (MDC-L): *
Relative proteolytic activity ADAM17 (ADAM17): ***
Relative proteolytic activity ADAM8 (ADAM8 [1]): *
Relative proteolytic activity ADAM15 (ADAM15): *

Molecule: X-KPAKFFRL-Z ({Edans‑E}-KPAKFFRL-{dabcyl‑K}) [CatEl, FRET peptide substrate; X = Edans-E; Z = dabcyl-K]
Relative proteolytic activity MDC-L (MDC-L): *****
Relative proteolytic activity ADAM17 (ADAM17): (—)
Relative proteolytic activity ADAM8 (ADAM8 [1]): *****
K0.5 (substrate concentration at which the enzyme activity was 50% of the Vmax) (ADAM8 [2]): 2.5 µM
Cleavage site of ADAM8 within the peptide (ADAM8 [2]): XKPAKF^FRLZ
Relative proteolytic activity ADAM15 (ADAM15): *****

Molecule: X-RTAAVFRP-Z ({Edans‑E}-RTAAVFRP-{dabcyl‑K}) [AD8P, FRET peptide substrate; X = Edans-E; Z = dabcyl-K]
Relative proteolytic activity MDC-L (MDC-L): *
Relative proteolytic activity ADAM17 (ADAM17): *****
Relative proteolytic activity ADAM8 (ADAM8 [1]): *
Relative proteolytic activity ADAM15 (ADAM15): *

Molecule: Z-RPLGLAR-X ({dabcyl‑K}-RPLGLAR-{Edans‑E}) [Mat, FRET peptide substrate; X = Edans-E; Z = dabcyl-K]
Relative proteolytic activity MDC-L (MDC-L): ***
Relative proteolytic activity ADAM17 (ADAM17): ***
Relative proteolytic activity ADAM8 (ADAM8 [1]): ***
Relative proteolytic activity ADAM15 (ADAM15): ***

Molecule: X-RFAQAQQQLP-Z ({Edans‑E}-RFAQAQQQLP-{dabcyl‑K}) [CD27L, FRET peptide substrate; X = Edans-E; Z = dabcyl-K]
Relative proteolytic activity MDC-L (MDC-L): ****
Relative proteolytic activity ADAM17 (ADAM17): (—)
Relative proteolytic activity ADAM8 (ADAM8 [1]): ****
K0.5 (substrate concentration at which the enzyme activity was 50% of the Vmax) (ADAM8 [2]): 5 µM
Cleavage site of ADAM8 within the peptide (ADAM8 [2]): XRFAQA^QQQLPZ
Relative proteolytic activity ADAM15 (ADAM15): ****

B1: soluble recombinant human ADAM8 with pro- and protease domains and C-terminal FLAG epitope (inactive precursor form) (protein)
chain: IAPSRPWALMEQYEVVLPWRLPGPRVRRALPSHLGLHPERVSYVLGATGHNFTLHLRKNRDLLGSGYTETYTAANGSEVTEQPRGQDHCFYQGHVEGYPDSAASLSTCAGLRGFFQVGSDLHLIEPLDEGGEGGRHAVYQAEHLLQTAGTCGVSDDSLGSLLGPRTAAVFRPRPGDSLPSRETRYVELYVVVDNAEFQMLGSEAAVRHRVLEVVNHVDKLYQKLNFRVVLVGLEIWNSQDRFHVSPDPSVTLENLLTWQARQRTRRHLHDNVQLITGVDFTGTTVGFARVSAMCSHSSGAVNQDHSKNPVGVACTMAHEMGHNLGMDHDENVQGCRCQERFEAGRCIMAGSIGSSFPRMFSDCSQAYLESFLERPQSVCLANAP
fluorometric proteolytic assay / FRET peptide zymography [3]: showed no activity in the fluorometric proteolytic assay
